# Measurements reported in PMC5979045.
# Molecular target: Toll-like receptor 4 (TLR4) on mouse bone marrow-derived dendritic cells (mouse (endogenous in bone marrow-derived DCs)) (UniProt Q9QUK6)
# Assay: flow cytometry on cells; immature bone marrow-derived DCs of WT C57 BL/6 mice, pre-incubated with IgG1 isotype, TLR2 blocking or TLR4 blocking antibody on ice for 1 h, then stained with anti-CD11c APC, anti-TLR2-FITC, anti-TLR4-PE-Cy7 and rTs-Hsp70-PE on ice for 30 min; rTs-Hsp70-PE and TLR2-FITC or TLR4-PE-Cy7 double positive cells among CD11c+ cells
# Sequence of UniProt Q9QUK6 (Q9QUK6 26-835): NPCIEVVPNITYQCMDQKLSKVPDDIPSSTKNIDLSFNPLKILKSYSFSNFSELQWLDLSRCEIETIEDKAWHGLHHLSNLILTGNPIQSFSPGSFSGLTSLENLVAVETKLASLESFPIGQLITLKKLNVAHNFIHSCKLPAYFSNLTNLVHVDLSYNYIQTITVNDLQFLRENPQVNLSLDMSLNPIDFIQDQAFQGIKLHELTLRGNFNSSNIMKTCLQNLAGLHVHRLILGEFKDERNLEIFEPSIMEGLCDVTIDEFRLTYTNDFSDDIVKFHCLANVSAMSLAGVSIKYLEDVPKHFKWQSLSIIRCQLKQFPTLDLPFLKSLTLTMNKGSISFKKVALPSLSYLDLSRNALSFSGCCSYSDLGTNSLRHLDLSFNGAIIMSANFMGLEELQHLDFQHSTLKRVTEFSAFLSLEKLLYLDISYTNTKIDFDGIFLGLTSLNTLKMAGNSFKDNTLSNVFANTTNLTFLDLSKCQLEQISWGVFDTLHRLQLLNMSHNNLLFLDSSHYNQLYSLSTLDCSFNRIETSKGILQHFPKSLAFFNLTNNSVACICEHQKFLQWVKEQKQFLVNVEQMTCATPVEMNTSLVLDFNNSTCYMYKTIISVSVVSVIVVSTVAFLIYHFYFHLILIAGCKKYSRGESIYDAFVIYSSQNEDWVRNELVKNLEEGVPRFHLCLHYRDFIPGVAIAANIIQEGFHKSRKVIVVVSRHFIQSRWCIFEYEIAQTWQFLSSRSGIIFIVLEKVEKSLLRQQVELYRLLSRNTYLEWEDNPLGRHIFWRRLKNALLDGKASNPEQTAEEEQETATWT
substance,measurement,value
Recombinant Trichinella spiralis Heat shock protein 70 (natural protein),percent of TLR4+ cells on CD11c+ DCs bound by rTs-Hsp70,12.3%
